According to paper PMC7363144, “Cryo-electron microscopy structure and potential enzymatic function of human six-transmembrane epithelial antigen of the prostate 1 (STEAP1)” (The Journal of Biological Chemistry, 2020):

Target: T1, six-transmembrane epithelial antigen of the prostate 1 (STEAP1), full-length human, C-terminal Strep-tag (Homo sapiens)
T1 construct: human STEAP1, UniProtKB Q9UHE8, full length; codon-optimized DNA from GeneArt; Homotrimer in the cryo-EM structure; in digitonin micelles; The PDB model holds residues 67-312 only; source: HEK293 GnTI- suspension cells, purified in digitonin (Strep-Tactin resin, SEC)
Experiment: SEC; 25 µl STEAP1 (0.28 mg/ml) mixed with a ~2-fold molar excess of Fab variant (35 µl at 0.5 mg/ml), several hours, Superdex 200 increase 3.2/300, 20 mM Tris pH 7.8, 200 mM NaCl, 0.08% digitonin; heme absorbance at 412 nm and tryptophan fluorescence
Conditions: both partners purified

T1 sequence (Q9UHE8 2-339): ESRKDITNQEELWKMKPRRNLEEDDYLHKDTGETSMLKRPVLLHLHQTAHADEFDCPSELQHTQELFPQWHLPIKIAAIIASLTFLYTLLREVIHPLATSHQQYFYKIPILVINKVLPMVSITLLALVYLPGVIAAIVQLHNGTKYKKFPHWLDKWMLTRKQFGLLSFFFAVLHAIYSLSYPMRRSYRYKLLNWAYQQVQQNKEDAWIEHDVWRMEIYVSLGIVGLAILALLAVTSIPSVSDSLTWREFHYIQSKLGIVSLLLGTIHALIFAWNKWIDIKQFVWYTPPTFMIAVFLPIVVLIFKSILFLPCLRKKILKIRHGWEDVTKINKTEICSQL

Binder | binding result
Fab120.545 mutant R32LE (Fab, V domains shown, as the heavy chain of m2; variable region in PDB 6Y9B; as the light chain of m2 with R32E; variable region of the parent in PDB 6Y9B; source: gift from Genmab BV, produced at the authors' request) VH: DVQVQESGPGLVKPSQSLSLTCTVTGYSITSDYAWNWIRQFPGNKLEWMGYISNSGSTSYNPSLKSRISITRDTSKNQFFLQLISVTTEDTATYYCARERNYDYDDYYYAMDYWGQGTTLTVSA VL: DIVMSQSPSSLAVSVGEKVTMSCKSSQSLLYESNQKNYLAWYQQKPGQSPKLLIYWASTRESGVPDRFTGSGSGTDFTLTISSVKAEDLAVYYCQQYYNYPRTFGGGTKLEIK | no binding
Fab120.545 mutant D103HA,D105HA,D106HA (Fab, V domains shown, as the heavy chain of m2 with D103A, D105A, D106A; variable region of the parent in PDB 6Y9B; as the light chain of m2; variable region in PDB 6Y9B; also called Fab-AAA; source: gift from Genmab BV, produced at the authors' request) VH: DVQVQESGPGLVKPSQSLSLTCTVTGYSITSDYAWNWIRQFPGNKLEWMGYISNSGSTSYNPSLKSRISITRDTSKNQFFLQLISVTTEDTATYYCARERNYAYAAYYYAMDYWGQGTTLTVSA VL: DIVMSQSPSSLAVSVGEKVTMSCKSSQSLLYRSNQKNYLAWYQQKPGQSPKLLIYWASTRESGVPDRFTGSGSGTDFTLTISSVKAEDLAVYYCQQYYNYPRTFGGGTKLEIK | no binding

The next lines start with the values.

binding result | Binder
no binding | Fab120.545 mutant N99LD (Fab, V domains shown, as the heavy chain of m2; variable region in PDB 6Y9B; as the light chain of m2 with N99D; variable region of the parent in PDB 6Y9B; source: gift from Genmab BV, produced at the authors' request) VH: DVQVQESGPGLVKPSQSLSLTCTVTGYSITSDYAWNWIRQFPGNKLEWMGYISNSGSTSYNPSLKSRISITRDTSKNQFFLQLISVTTEDTATYYCARERNYDYDDYYYAMDYWGQGTTLTVSA VL: DIVMSQSPSSLAVSVGEKVTMSCKSSQSLLYRSNQKNYLAWYQQKPGQSPKLLIYWASTRESGVPDRFTGSGSGTDFTLTISSVKAEDLAVYYCQQYYDYPRTFGGGTKLEIK
no binding | Fab120.545 mutant D103HN,D105HN,D106HN (Fab, V domains shown, as the heavy chain of m2 with D103N, D105N, D106N; variable region of the parent in PDB 6Y9B; as the light chain of m2; variable region in PDB 6Y9B; also called Fab-NNN; source: gift from Genmab BV, produced at the authors' request) VH: DVQVQESGPGLVKPSQSLSLTCTVTGYSITSDYAWNWIRQFPGNKLEWMGYISNSGSTSYNPSLKSRISITRDTSKNQFFLQLISVTTEDTATYYCARERNYNYNNYYYAMDYWGQGTTLTVSA VL: DIVMSQSPSSLAVSVGEKVTMSCKSSQSLLYRSNQKNYLAWYQQKPGQSPKLLIYWASTRESGVPDRFTGSGSGTDFTLTISSVKAEDLAVYYCQQYYNYPRTFGGGTKLEIK
